# Results published in publication PMC6242971 (2018).
# Where no end group is shown, it is not given here. The star is where a group is joined. FITC = O=C1OC2(c3ccc(O)cc3Oc3cc(O)ccc32)c2ccc(NC(=S)*)cc21
# T1: GST-tagged GluK2 ATD (rat)
# T1 chain: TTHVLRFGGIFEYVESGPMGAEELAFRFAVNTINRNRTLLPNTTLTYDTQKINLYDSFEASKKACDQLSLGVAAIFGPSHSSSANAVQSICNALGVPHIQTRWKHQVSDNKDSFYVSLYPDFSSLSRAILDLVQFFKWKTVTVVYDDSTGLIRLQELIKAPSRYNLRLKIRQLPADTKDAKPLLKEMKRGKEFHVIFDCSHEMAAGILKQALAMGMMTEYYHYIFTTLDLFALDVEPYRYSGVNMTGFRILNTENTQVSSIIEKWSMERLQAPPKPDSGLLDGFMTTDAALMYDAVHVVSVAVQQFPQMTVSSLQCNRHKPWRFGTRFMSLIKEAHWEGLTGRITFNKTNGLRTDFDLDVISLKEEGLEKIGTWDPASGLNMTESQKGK
# T2: GST-tagged GluK1 N72-137 region (rat, UniProt P22756 72-137)
# T2 chain: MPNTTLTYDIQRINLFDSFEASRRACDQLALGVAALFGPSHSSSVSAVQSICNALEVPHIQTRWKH
# T3: GST-tagged GluK2 region corresponding to GluK1 N72-137 (rat, UniProt P42260 71-136)
# T3 chain: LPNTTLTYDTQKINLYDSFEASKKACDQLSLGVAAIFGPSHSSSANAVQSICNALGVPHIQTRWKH
# T4: GST-tagged GluK1 ATD (rat)
# T4 chain: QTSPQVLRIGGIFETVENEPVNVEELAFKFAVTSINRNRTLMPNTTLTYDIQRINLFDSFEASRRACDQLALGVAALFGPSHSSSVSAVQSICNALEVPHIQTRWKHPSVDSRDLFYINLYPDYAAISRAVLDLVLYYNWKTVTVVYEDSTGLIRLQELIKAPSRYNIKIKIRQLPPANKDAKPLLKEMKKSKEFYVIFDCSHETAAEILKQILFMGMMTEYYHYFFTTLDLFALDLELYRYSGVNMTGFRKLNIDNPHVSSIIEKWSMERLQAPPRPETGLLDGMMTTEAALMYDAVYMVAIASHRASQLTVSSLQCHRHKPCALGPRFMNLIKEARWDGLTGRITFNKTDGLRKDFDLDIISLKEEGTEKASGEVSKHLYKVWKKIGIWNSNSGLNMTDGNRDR
# B1: FITC-labelled GluK1 signal peptide (peptide)
# chain: {FITC}-MERSTVLIQPGLWTRDTSWTLLYFLCYILP
# Experiments:
# Assay in all cases: FP
# [1] = target: T1, GST-tagged GluK2 ATD
# [2] = target: T2, GST-tagged GluK1 N72-137 region
# [3] = target: T3, GST-tagged GluK2 region corresponding …
# [4] = target: T4, GST-tagged GluK1 ATD
binder,measurement,setting,value
B1,Kd,[1],35.7 µM
same,Kd,[2],14.1 µM
same,Kd,[3],36.3 µM
same,Kd,[4],13.7 µM
